Measured values as given in the nanobody polyreactivity screen of Harvey et al. (2022).

Experiment: yeast display, Sf9 membrane polyspecificity reagent, FACS + sequencing; frameworks hold sequencing errors
Procedure, shortened: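 Galactose induction of a Saccharomyces cerevisiae BJ5465 synthetic nanobody display library ran 36–48 hours. The cells were then stained for 1 hour at 4 °C with 10% biotinylated, detergent-solubilized Sf9 membrane reagent, pulled down on streptavidin microbeads and FACS-sorted into low and high (top ~1%) gates on expression and reagent-binding fluorescence. Labels for polyreactivity follow the gate of origin.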

Sequence | polyreactivity (PSR sort gate)
QVQLVESGGGLVQAGGSLRLSCAASGRTFIKYAMGWYRQAPGKERELVAAITYSAGSTSYADSVKGRFTISRDNAKNTVYLQMNSLKPEDTAVYYCNAVPTWWTQEVGSYKSLGYWGQGTQVTVSS | low polyreactivity
QVQLVESGGGLVQAGGSLRLSCAASGRTFINNAMGWYRQAPGKERELVAAISWDGGRTYYADSVKGRFTISRDNAKNTVYLQMNSLKPEDTAVYYCNAQPNYAYHGEDDYWGQGTQVTVSS | high polyreactivity
QVQLVESGGGLVQAGGSLRLSCAASGRTFIPYAMGWYRQAPGKERELVATIRRGGSTYYADSVKGRFTISRDNAKNTVYLQMYSLKPEDTAVYYCAATRYSFGPRRVDYWGQGTQVTVSS | high polyreactivity
QVQLVESGGGLVQAGGSLRLSCAASGRTFIPYGMGWYRQAPGKERELVAAIRDGGSTNYADSVKGRFTISRDNAKNTVYLQMNSLKPADTAVYYCNADLPVYVDYINGGYGYWGQGTQVTVSS | low polyreactivity
QVQLVESGGGLVQAGGSLRLSCAASGRTFIRYAMAWYRQAPGKGRELLAANNWSGSTYYADSVKGRFTISRDNAKNTVYVQINSLKPEDTAVYYCAAYPYGVTNAYGSWGQGTQVTVSS | high polyreactivity
QVQLVESGGGLVQAGGSLRLSCAASGRTFIRYAMGWYRQAPGKERELVAAITQSGGSTYYADSVKGRFTISRDNAKNTVYLQMNSLKPEDTAVYYCAAEYRYPGWSYNYWGQGTQVTVSS | high polyreactivity
QVQLVESGGGLVQAGGSLRLSCAASGRTFISNAMGWYRQAPGKERELVAAISSVGSTNYADSVKGRFTISRDNAKNTVYLQMKSLKPEDTAVYYCAAGRFWFLAHYGGYYWGQGTQVTVSS | high polyreactivity
QVQLVESGGGLVQAGGSLRLSCAASGRTFISNTMGWYRQAPGKERELVAALSGSGGSTYYADSVKGRFTISRDNAKNSVYLNMNRLKPEDTAVYYCNAPYVRQTRFGQSVRNNYWGQGTQVTVSS | high polyreactivity
QVQLVESGGGLVQAGGSLRLSCAASGRTFISYAMGWYRQAPGKERELVAGISTSGDNTYNADSVKGRFTISRDNAKNTVYLQMNSLKPEDTAVYYCAAGQDLHDFDYWGQGTQVTVSS | low polyreactivity
QVQLVESGGGLVQAGGSLRLSCAASGRTFIVNAMGWYRQAPGKERELVAAITKGARTYYADSVKGRFTISRDNAKNTVYLQMNSLKPEDSAVYYCAAVSYTQSHAYWGTGYRYGYWGQGTQVTVSS | high polyreactivity
QVQLVESGGGLVQAGGSLRLSCAASGRTFIYNVMGWYRQAPGKERELVASIRSSGGSTYYADSVKGRFTISRDNAKNSVYLQMNSLKPEDTAVYYCAADRSPGIRCWPGDYWGQGTQVTVSS | low polyreactivity
QVQLVESGGGLVQAGGSLRLSCAASGRTFIYYAMGWYRQAPGKEREFVAIISWNGTSTNYADSVKGRFTISRDNAKNTVYLQMNSLKPEDTAVYYCAASFWTDYYRYDYWGQGTQVTVSS | low polyreactivity
QVQLVESGGGLVQAGGSLRLSCAASGRTFIYYAMGWYRQAPGKERELVAAITNRGGRTYYADSVKWRFTISRDNAKYTVYLQMNSLKPEDTAVYYCNRVGTYHSYDYWGQGTQVTVSS | high polyreactivity
QVQLVESGGGLVQAGGSLRLSCAASGRTFIYYTMGWYREAPGKERELVASISFSGGRTYYADSVKGRFTISRDNAKNTVYLQMNSLKAEDTAVYYCNRVLYYQVDYWGQGTEVTVSS | high polyreactivity
QVQLVESGGGLVQAGGSLRLSCAASGRTFKDYVMGWYRQAPGKERELVAAITWRGGRTYYADSVKGRFTISRDNAKNTVYLQMNSLKPEDTAVYYCAAAEYFVSGGIMDYWGQGTQVTVSS | high polyreactivity
QVQLVESGGGLVQAGGSLRLSCAASGRTFKGYTMGWYRQAPGKERELVAAITRSGGGTYYADSVKGRFTISRDNAKNTVYLQMNSLKPEDTAVYYCAAYNGSRRQEFDYWGQGTQVTVSS | high polyreactivity
QVQLVESGGGLVQAGGSLRLSCAASGRTFKLYAMGWYRQAPGKERELVATIRRSGTRTYADSVKGRFTISRDNAKNTVYLQMNSLKPEDTAVYYCAATTYGYVYHRYDYWGQGTQVTVSS | high polyreactivity
QVQLVESGGGLVQAGGSLRLSCAASGRTFKPYAMGWYRQAPGKERELVAAISTRGGSTYADSVKGRFTISRDNAKNTVYLQMNSLKPEDTAVYSCAAVYYRASARKFGYWGQGTQVTVSS | low polyreactivity
QVQLVESGGGLVQAGGSLRLSCAASGRTFKPYGMGWYRQAPGKERELVAAISSRGDITYYADSVKGRFTISRDNAKNTVYLQMNSLKPEDTAVYYCNADLYRKRAWVRRDGSWGQGTQVTVSS | low polyreactivity
QVQLVESGGGLVQAGGSLRLSCAASGRTFKRFAMGWYRQAPGKERELVAAITWSGGNTYYADSVKGRFTISRDNAKNTVYLQMNSLKPEDTAVYYCAAKGAGRRYDSWGQGTQVTVSS | high polyreactivity
QVQLVESGGGLVQAGGSLRLSCAASGRTFKSYAMGWYRQAPGKERELVATITRDGRTNYADSVKGRFTISRDNAKNTVYLQMNSLKPEDTAVYYCNADSRYRYDYWGLGTQVTVSS | low polyreactivity
QVQLVESGGGLVQAGGSLRLSCAASGRTFKWNAMGWYRQAPGKERELVAAISSRDGSTYYADSVKGRFTISRDNAKNTVYLQMNSLKPEDTAVYYCNAYFTGARQRTLGYDYWGQGTQVTVSS | low polyreactivity

Sequence | polyreactivity (PSR sort gate)
QVQLVESGGGLVQAGGSLRLSCAASGRTFKWNPMGWYRQAPGKERELVAAITRSDGRTFYADSVKGRFTISRDNAKNTVYLQMNSLKPEDSAVYYCNALGYRNSVIYSGFDYWGQGTQVTVSS | low polyreactivity
QVQLVESGGGLVQAGGSLRLSCAASGRTFKYYAMGWARQAPGKERELVATISYNGASTYYADSVKGRFTSSRDNAKNSVYLQMNSQKPEDTAVYYCAAAYLWRGRLGYWGQGTQVTVSS | high polyreactivity
QVQLVESGGGLVQAGGSLRLSCAASGRTFKYYAMGWYRQAPGKERELVAAISLSSGRTYYADSVKGRFTISRDNAKNTVYLQMNSLKPEDTAVYYCAAERYASGLVYGYDYWGQGTQVTVSS | high polyreactivity
QVQLVESGGGLVQAGGSLRLSCAASGRTFKYYAMGWYRQAPGKERELVAAISRGGSTNYADSVKGRFTISRDNAKNTVYLQVNSLKPEDTAVYYCARRYIVQSGDDYWGQGTQVTVSS | low polyreactivity
QVQLVESGGGLVQAGGSLRLSCAASGRTFKYYAMGWYRQAPGKERELVAAISYNGGSTFYADSVKGRFTISRDNAKNTVYLQMNSLKPEDTAVYYCAAGSRYASELDYWGQGTQVTVSS | high polyreactivity
QVQLVESGGGLVQAGGSLRLSCAASGRTFKYYAMGWYRQAPGKERELVAAITYRDRTYYADSVKGRFTISRDNAKNTVYLQMNSLKPEDTAVYYCAAQHYGSDGRGFDYWGQGTQVTVSS | low polyreactivity
QVQLVESGGGLVQAGGSLRLSCAASGRTFKYYAMGWYRQAPGKERELVAGITSGSSTSYADSVKGRFTISRDNAKITVYLQMNSLKPEDTAVYFCAAGIYQYRYDYWGQGTQVTVSS | high polyreactivity
QVQLVESGGGLVQAGGSLRLSCAASGRTFKYYAMGWYRQAPGKERELVAGITYRDGRTYYADSVKGRFTISRDNAKNTVYLQMNSLKPEDTEVYYCAAERYSSPYWGMDYWGQGTQVTVSS | high polyreactivity
QVQLVESGGGLVQAGGSLRLSCAASGRTFKYYAMGWYRQAPGKERELVASISASGGSTRYADSVKGRFTISRDNAKNTVYLQMNSLKPEDTAVYYCAADRGYKYYYWGLGTQVTVSS | high polyreactivity
QVQLVESGGGLVQAGGSLRLSCAASGRTFKYYTMGWYRQAPGKEREFVAAITSSGGRTYYADSVKGRFTISRDNAKNTVDLQMNSLKPEDTAVYYCAASTYRVWLAPATLSRYDYWGQGTQVTVSS | high polyreactivity
QVQLVESGGGLVQAGGSLRLSCAASGRTFLAYAMGWYRQAPGKERELVAAISSSGSTTYYADSVKGRFTISRDNAKNTVYLQMNSLKPEDTAVYYCAASNGYRSSYYRYDYWGQGTQVTVSS | low polyreactivity
QVQLVESGGGLVQAGGSLRLSCAASGRTFLEYAMGWYRQAPGKERELVASITWSGDTTYYADSVKGRFTISRDNAKNTVYLQMNSLKPEDTAVYYCAAGYYYPNTYYSYDWYDYWGQGTQVTVSS | low polyreactivity
QVQLVESGGGLVQAGGSLRLSCAASGRTFLGYTMGWYRQAPGKESEFVAAITFSGDSTYYADSVKGRFTISRDNAKNTVYLQMNSLKPEDTAVYYCAARIKYYTYLFYYWGQGTQVTVSS | high polyreactivity
QVQLVESGGGLVQAGGSLRLSCAASGRTFLHNAKGWYRQAHGKERELVAAIDSGGTTHYADSVKGRFTISRDNAKNTVYLQMKSLKPEDTAVYYCAARPTRGNWWYGYWGQGTQVTVSS | low polyreactivity
QVQLVESGGGLVQAGGSLRLSCAASGRTFLINAMGWYRQAPGKEWELVAAITQSGGSTYYADSVKGRFTISRDKAKNTVYLQLNSLKPEDTAVYYCAADVPGVYPYDYWGQGTQVTVSS | low polyreactivity
QVQLVESGGGLVQAGGSLRLSCAASGRTFLIYAMGWYRQAPGKERELVAAITSGGRTKYADSVKGRFTISRDNAKNTVYLQMNSLKPEDTAVYYCAARTGVYRYSRKFYYWGQGTQVTVSS | high polyreactivity
QVQLVESGGGLVQAGGSLRLSCAASGRTFLKNAMGWYRQAPGKERELVAAITSGGSTNYADSVKGRFTISRDNAKNTVYLQMNSLKPEDTAVYYCNAPSYWYYPVLGSFLTFDYWGQGTQVTVSS | low polyreactivity
QVQLVESGGGLVQAGGSLRLSCAASGRTFLLYAMGWYRQAPGKERELVAAITSGGGRTYYADSVKGRFTISRDNAKNTVYLQMNSLKPEDTAVYYCAATRPATYAAYDYWGQGTQVTVSS | high polyreactivity
QVQLVESGGGLVQAGGSLRLSCAASGRTFLQYAMGWYRQAPGKERELVAANTTSGGDTYYADSVKGRFTISRDNAKNTVYLQMNSMKPDDTAVYYCNAAFRVYIPHVPYFVDFDYWGQGTQVTLSS | low polyreactivity
QVQLVESGGGLVQAGGSLRLSCAASGRTFLVYAMGWYRQAPGKERELVAAIRYSGSSTYADSVKGRFTISRDNAKNTVYLQMNSLKPEDTAVYDCNARRASYRSIYDYWGHGTQVTVSS | high polyreactivity
QVQLVESGGGLVQAGGSLRLSCAASGRTFLVYAMGWYRQAPGKERELVAAITYSDGSTYYADSVKGRFTISRDNAKNTVYLQMNSLKPEDTAVYFCAADSSTFPSDYYWGKGTQVTVSS | low polyreactivity
